B1: human DISC1 fragment 598-715 (domain or fragment, UniProt Q9NRI5 598-715, looked up)
chain: GNHFWTAKDLTEEIRSLTSEREGLEGLLSKLLVLSSRNVKKLGSVKEDYNRLRREVEHQETAYETSVKENTMKYMETLKNKLCSCKCPLLGKVWEADLEACRLLIQSLQLQEARGSLS
notes: same vector as m3; source: E. coli BL21 AI (pESPRIT002), purified (Ni2+-NTA, SEC)
B2: human DISC1 fragment 480-721 (domain or fragment, UniProt Q9NRI5 480-721, looked up)
chain: EAKDQQLRREIEEQEQQLQWQGCDLTPLVGQLSLGQLQEVSKALQDTLASAGQIPFHAEPPETIRSLQERIKSLNLSLKEITTKVCMSEKFCSTLRKKVNDIETQLPALLEAKMHAISGNHFWTAKDLTEEIRSLTSEREGLEGLLSKLLVLSSRNVKKLGSVKEDYNRLRREVEHQETAYETSVKENTMKYMETLKNKLCSCKCPLLGKVWEADLEACRLLIQSLQLQEARGSLSVEDERQ
notes: Disrupted-in-Schizophrenia 1 (DISC1), human, UniProtKB Q9NRI5, residues 480-721; same vector as m3; also called DISC1^480-721; source: E. coli BL21 AI (pESPRIT002), purified (Ni2+-NTA, SEC)
B3: anti-DISC1 VHH B5 antibody (VHH)
VHH: QVKLEESGGGLVQAGGSLRLSCAASGTLFSISVMGWYRQAPGMQRELVGSITDGGSTIYGDSVKGRFAISKDNAKRTIYLQMNSLKPEDTAVYYCNYRRLTSNYWGQGTQVTVSS
notes: Selected by phage display from an immunised llama; the homology model holds residues 1-120; PDB 3EZJ chain B is only the template of the homology model, not this VHH; also called clone B5; VHH domain B5; source: E. coli BL21 Rosetta (pET-22b, periplasm), purified (Ni2+-NTA, SEC)
B4: full length human DISC1 (natural protein, UniProt Q9NRI5 1-854, looked up)
chain: MPGGGPQGAPAAAGGGGVSHRAGSRDCLPPAACFRRRRLARRPGYMRSSTGPGIGFLSPAVGTLFRFPGGVSGEESHHSESRARQCGLDSRGLLVRSPVSKSAAAPTVTSVRGTSAHFGIQLRGGTRLPDRLSWPCGPGSAGWQQEFAAMDSSETLDASWEAACSDGARRVRAAGSLPSAELSSNSCSPGCGPEVPPTPPGSHSAFTSSFSFIRLSLGSAGERGEAEGCPPSREAESHCQSPQEMGAKAASLDGPHEDPRCLSRPFSLLATRVSADLAQAARNSSRPERDMHSLPDMDPGSSSSLDPSLAGCGGDGSSGSGDAHSWDTLLRKWEPVLRDCLLRNRRQMEVISLRLKLQKLQEDAVENDDYDKAETLQQRLEDLEQEKISLHFQLPSRQPALSSFLGHLAAQVQAALRRGATQQASGDDTHTPLRMEPRLLEPTAQDSLHVSITRRDWLLQEKQQLQKEIEALQARMFVLEAKDQQLRREIEEQEQQLQWQGCDLTPLVGQLSLGQLQEVSKALQDTLASAGQIPFHAEPPETIRSLQERIKSLNLSLKEITTKVCMSEKFCSTLRKKVNDIETQLPALLEAKMHAISGNHFWTAKDLTEEIRSLTSEREGLEGLLSKLLVLSSRNVKKLGSVKEDYNRLRREVEHQETAYETSVKENTMKYMETLKNKLCSCKCPLLGKVWEADLEACRLLIQSLQLQEARGSLSVEDERQMDDLEGAAPPIPPRLHSEDKRKTPLKVLEEWKTHLIPSLHCAGGEQKEESYILSAELGEKCEDIGKKLLYLEDQLHTAIHSHDEDLIQSLRRELQMVKETLQAMILQLQPAKEAGEREAAASCMTAGVHEAQA
notes: Disrupted-in-Schizophrenia 1 (DISC1), human, UniProtKB Q9NRI5; source: NLF human neuroblastoma cells, transfected, in lysate
B5: human DISC1 fragment comprising residues 691-836 (C region) (domain or fragment, UniProt Q9NRI5 691-836, looked up)
chain: WEADLEACRLLIQSLQLQEARGSLSVEDERQMDDLEGAAPPIPPRLHSEDKRKTPLKVLEEWKTHLIPSLHCAGGEQKEESYILSAELGEKCEDIGKKLLYLEDQLHTAIHSHDEDLIQSLRRELQMVKETLQAMILQLQPAKEAG
notes: also called DISC1 C region; source: E. coli BL21 AI (pESPRIT002), purified (Ni2+-NTA, SEC); not shown: His tag, N-terminal, kept

Assays:
[1] = molecular target: T1, anti-DISC1 human Fc-VHH antibody (VHH B5 fused to human Fc) (Lama glama); test: far-Western, overlay or dot blot; western blot of purified His-tagged DISC1 truncation constructs probed with the VHH-Fc (conditioned medium) and an anti-human secondary antibody; conditions: one partner purified
T1 construct: as the VHH of m1; also called VHH-Fc; VHH–Fc antibody; not shown: Fc (human), C-terminal, kept

[2] = molecular target: B5; test: SEC + SPR; stoichiometry of the DISC1^691-836 - VHH B5 complex as supported by the SEC and SPR results; conditions: both partners purified
[3] = molecular target: B5; test: SPR; Biacore T200, 25°C, PBS/0.05% Tween-20 pH 7.4; DISC1^691-836 amine-coupled to a CM5 chip (250 RU); VHH B5 19 nM to 1.5 uM injected in a single cycle; response levels against concentration fitted with Langmuir 1:1 model; conditions: both partners purified
[4] = molecular target: T1, anti-DISC1 human Fc-VHH antibody (VHH …); test: far-Western, overlay or dot blot; western blot of lysates of NLF neuroblastoma cells transfected with human DISC1 or mouse Disc1, probed with the VHH-Fc (conditioned medium); conditions: partners not purified

Binder	binding result [1]	further results
B1	binds	
B2	binds	
B3		stoichiometry N [2]: 1; Kd [3]: 139 nM
B4		binding result [4]: binds
B5	binds	

Reference: article PMC5764400, “Biophysical insights from a single chain camelid antibody directed against the Disrupted-in-Schizophrenia 1 protein” (PLoS ONE, 2018)
